{
  "source": "paper PMC4277767",
  "about": "(ACS Synthetic Biology, 2014)",
  "biological_target": "LexA-CRY2 (CRY2 fused to the LexA DNA binding domain) (Arabidopsis, UniProt Q96524 1-612)",
  "sequence (Q96524 whole entry, the tested form may be a part)": "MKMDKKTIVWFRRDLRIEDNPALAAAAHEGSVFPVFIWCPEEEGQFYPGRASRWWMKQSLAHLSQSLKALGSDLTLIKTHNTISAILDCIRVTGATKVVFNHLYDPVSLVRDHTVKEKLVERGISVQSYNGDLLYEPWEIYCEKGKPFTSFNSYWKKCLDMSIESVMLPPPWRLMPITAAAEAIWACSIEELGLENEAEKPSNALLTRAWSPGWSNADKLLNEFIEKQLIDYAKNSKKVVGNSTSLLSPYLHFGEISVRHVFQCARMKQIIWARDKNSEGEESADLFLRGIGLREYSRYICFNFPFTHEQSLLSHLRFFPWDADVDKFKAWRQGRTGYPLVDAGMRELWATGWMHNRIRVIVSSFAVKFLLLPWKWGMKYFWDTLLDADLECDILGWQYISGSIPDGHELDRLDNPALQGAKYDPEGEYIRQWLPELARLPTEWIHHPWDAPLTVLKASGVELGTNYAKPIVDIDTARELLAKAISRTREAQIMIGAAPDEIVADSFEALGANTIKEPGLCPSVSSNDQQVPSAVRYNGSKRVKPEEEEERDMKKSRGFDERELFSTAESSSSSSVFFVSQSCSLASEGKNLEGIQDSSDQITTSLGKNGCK",
  "assay": "two-hybrid",
  "data": [
    {"binder": "VP16-CIB1 (CIB1 fused to a VP16 activation domain) (natural protein, Arabidopsis, UniProt Q8GY61 1-335, looked up) MNGAIGGDLLLNFPDMSVLERQRAHLKYLNPTFDSPLAGFFADSSMITGGEMDSYLSTAGLNLPMMYGETTVEGDSRLSISPETTLGTGNFKKRKFDTETKDCNEKKKKMTMNRDDLVEEGEEEKSKITEQNNGSTKSIKKMKHKAKKEENNFSNDSSKVTKELEKTDYIHVRARRGQATDSHSIAERVRREKISERMKFLQDLVPGCDKITGKAGMLDEIINYVQSLQRQIEFLSMKLAIVNPRPDFDMDDIFAKEVASTPMTVVPSPEMVLSGYSHEMVHSGYSSEMVNSGYLHVNPMQQVNTSSDPLSCFNNGEAPSMWDSHVQNLYGNLGV", "values": [
      {"measurement": "fold stimulation of reporter activity by blue light over dark", "value": "~100", "unit": "fold"}
    ]}
  ]
}
